Substitutions are numbered along the chain they refer to.

B1: F1.42.8 human-murine chimeric antibody (antibody, human IgG1, kappa, V domains shown)
VH: HVQLQQPGAELVKPGASVKLSCKASGYTFTSYWMHWVRQRPGQGLEWIEMIHPNSGSTNYNEKFKSKATLTVDKSSSTAYMQLSSLTSEDSAVYYCARGNYNSSLYAMDYWGQGTSVTVSS
VL: DIQMTQTTSSLSASLGDRVTISCSASQGISNYLNWYQQKPDGTVKLLIYYASNLHSGVPSRFSGSGSGTAYSLTISNLEPEDIATYYCQQYSILPYTFGGGTKLEIKR
B2: F1.73.9 human-murine chimeric antibody (antibody, human IgG1, kappa, V domains shown)
VH: QVQLKQSGAELVRPGASVKLSCKASGYTFTDYYINWVKQRPGQGLEWIARIYPGSGNTYYNEKFKGKATLTAEKSSSTAYMQFSSLTSEDSAVYFCACSTYYTMDYWGQGTSVTVSS
VL: QIVLTQSPAIMSASLGERVTMTCTASSGVSSSYLHWYQQKPGSSPKLWIYTTSNLASGVPARFSGSGSGTSYSLTISSMEAEDAATYYCHQYHRSPYTFGGGTKLEIKR
B3: F1.92.17 human-murine chimeric antibody (antibody, human IgG1, kappa, V domains shown)
VH: EVQLQQSGPELVKPGASVKMSCKASGYTFTDYNMHWVRQSHGKSLEWIGYINPNNGDTIYNQNFKGKATLTVNKSSSTAYMELRSLTSEDSAVYYCSRTITYYYSMDYWGPGTSVTVSS
VL: QIVLTQSPALMSASPGEKVTMTCSASSSVSYMYWYQQKPRSSPKPWIYLTSNLASGVPARFSGSGSGTSYSLTISSMEAEDAATYYCQQWSSNPLTFGAGTKLELKR
B4: F1.110.24 human-murine chimeric antibody (antibody, human IgG1, kappa, V domains shown)
VH: EVKLVESGGGLVQPGGSLKLSCAASGFTFSDFYMYWVRQTPEKRLEWVAFISNGGGSTYYPDTVKGRFTISRDNVKNTLYLQMSRLKSEDTAMYYCARPDTSWFAYWGQGSLVTVSA
VL: DIQMTQTTSSLSASLGDRVTISCRASQDIDNYLNWYQQKPDGTVKVLISYTSRLHSGVPSRFSGSGSGTDYSLTISNLEQEDIATYFCQQGNTLPWTFGGGTKLEIKR
B5: F1.41.17 human-murine chimeric antibody (antibody, human IgG1, kappa, V domains shown)
VH: EVQLVESGGDSVKPGGSLKLSCAASGFTFSSYGMSWVRQTPDKRLEWVATINSGGSYTYYQDSVKGRFTISRDNAKNTLYLQMSSLKSEDTAIYYCVRHHYGSSYDYFDYWGQGTTLTVSS
VL: DIVMTQAAPSVPVMPGESVSISCRSSKSLLHSNGNTHLYWFLQRPGQSPQLLIYRMSNLASGVPDRFSGSGSGTAFTLRISRVEAEDVGVYYCMQHLEYPLTFGAGTKLELKR
B6: F1.78.24 human-murine chimeric antibody (antibody, human IgG1, kappa, V domains shown)
VH: QVQLQQSGAELVKPGASVKMSCKASGYTFTTYPIEWMKQNHGKSLEWIGNFHPYNDDTNYNVKFKGKATLTVEKSSSTVYLELSRLTSDDSALYYCARRREYYGSFDVWGTGTTVTVSS
VL: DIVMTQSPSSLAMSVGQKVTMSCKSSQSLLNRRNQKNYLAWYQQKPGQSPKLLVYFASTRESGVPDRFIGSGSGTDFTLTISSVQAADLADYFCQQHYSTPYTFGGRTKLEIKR
B7: F1.83.6 human-murine chimeric antibody (antibody, human IgG1, kappa, V domains shown)
VH: QVQLQQSGPELVKPGASVKISCKASGYAFSSSWMNWVKQRPGKGLEWIGRIYPGDGDTNYNGRFKGKATLTVDKSSSTAYMQLSSLTSEDSAVYFCARGGVFTMALDHWGQGTTLTVSS
VL: DIQMTQSPSSLSASLGGKVTITCKASQDINKYIAWYQHKPGKGPRLLIHYTSTLQPGIPSRFSGSGSGRDYSFSISNLEPEDIATYYCLQYDNLFTFGGGTKLEIKR
B8: F1.111.11 human-murine chimeric antibody (antibody, human IgG1, kappa, V domains shown)
VH: EVQLQQSGPELVKPGASVKISCKASGYTFTDYYMNWVKQSHGKSLEWIGDIYPNNGDTTYNQRFKGKATLTVDKSSSTAYMELRSLASEDSAVYYCACPYNNPFGYWGQGTLVTVSA
VL: DVVMTQTPLSLPVSLGDQASISCRSSQSLVHSNGNTYLHWYLQKPGQSPKLLIYKVSNRFSGVPDRFSGSGSGTDFTLKISRVEAEDLGVYFCSQSTHVPWTFGGGTKLEIKR
B9: F1.115.8 human-murine chimeric antibody (antibody, human IgG1, kappa, V domains shown)
VH: EVQLQQSGPELVKPGASVKMSCKASGYTFTEYYMHWVKQSHGKSLEWIGYIYPNNGGNGYNQKFKGKATLTVDKSSSTAYMGLRSLTSEDSAVYYCVRGYYSNWYFDVWGTGTTVTVSS
VL: B8 VL with V3L, L29I, N35K, H39E, F92Y, S94F, S96G, T97S, W101F, G105S
B10: F1.57.21 human-murine chimeric antibody (antibody, human IgG1, kappa, V domains shown)
VH: QVQLQQSGAELARPGASVKLSCKASGYTFTSYGISWVKQITGQGLEWIGEIYPRSESTYYNEKFKGKATLTADKSSSTAYMELRSLTSEDSAVYFCARDYGNIYSFAYWGQGTLVTVSA
VL: DIQMTQSPASLSASVGETVTITCRTSENIYSYLAWYQQKQGKSPQLLVYNAKTLAEGVPSRFSGSGSGTQFSLKINSLQPEDFGSYYCQHHYGTPLTFGAGTKLELKR

In the first assay the target is T1, GPC3 endogenously expressed on HepG2 cells (UniProt P51654 25-554).
T1 construct: whole, on cells
The assay is described as follows: FACS on HepG2 cells.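 Further: flow cytometric binding of chimeric antibodies to cells, read as mean fluorescence intensity, EC50 obtained by curve fitting of the MFI data.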
Turning to B1, the EC50 (in general, the midpoint of the concentration-response curve) came out at 0.21 nM and the “Max MFI” value came to 2090 MFI.
The like results for B2 were, in that order, 0.25 nM and 1880 MFI.
Turning to B3, the response was half-maximal at 2.9 nM (EC50) and the “Max MFI” value stood at 2300 MFI.
For B4 the same measures were 0.83 nM and 2270 MFI.
As to B5, the EC50 came out at 0.2 nM and the “Max MFI” value is 1990 MFI.
For the molecule B6, the midpoint of the response, the EC50, lay at 0.31 nM and the “Max MFI” value was determined as 2120 MFI.
The like results for B7 were, in that order, 0.87 nM and 2340 MFI.
For the molecule B8, the EC50 came out at 1.13 nM and the “Max MFI” value was 1880 MFI.
Regarding B9, the EC50 came out at 0.18 nM and the “Max MFI” value is 2460 MFI.
For B10 the same measures were 0.71 nM and 1650 MFI.

The next assay has as its target T2, human GPC3-His protein (human, UniProt P51654 25-559).
T2 construct: Bought protein; also called human GPC3 protein; not shown: His tag
The assay is described as follows: ELISA, coated human GPC3, antibody 0.01 nM.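 Further: Plate-bound antigen coated at 1 µg/mL, antibody incubated 2 h at 37 °C, binding detected by HRP-conjugated secondary antibody with TMB substrate, read as absorbance at 450 nm.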
For the molecule B1, the OD450 nm is 0.3 OD450.
Consider B2, for which the OD450 nm was found to be 0.23 OD450.
Same read-out and setting: in the case of B3 it was 0.11 OD450; in that of B4, 0.13 OD450; in that of B5, 0.24 OD450.
On the same count and under the same terms, the same measure for B6: 0.19 OD450; for B7: 0.17 OD450.
On the same count and under the same terms, in the case of B8 it was 0.41 OD450.
B9 displayed an OD450 nm of 0.2 OD450.
Still for that read-out and setting: in the case of B10 it was 0.21 OD450.

A further assay addresses T2, human GPC3-His protein. As to the kind of experiment: ELISA, coated human GPC3, antibody 1 nM.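 Further: antigen coated at 1 µg/mL on 96-well plates, antibody bound for 2 h at 37 °C, detected with HRP-labeled secondary antibody and TMB, absorbance read at 450 nm.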 A general note: An ELISA detects its analyte on a solid surface through an enzyme-linked reagent.
With B1, the OD450 nm turned out to be 2.02 OD450.
On the same count and under the same terms, the same measure for B2: 1.33 OD450; for B3: 0.68 OD450.
The same measure, in the same setting: in the case of B4 it was 0.77 OD450.
On the same count and under the same terms, the same measure for B5: 1.68 OD450.
In the case of B6, the OD450 nm stood at 0.72 OD450.
B7 displayed an OD450 nm of 0.83 OD450.
Molecule B8 came in with an OD450 nm of 2.41 OD450.
As to B9, the OD450 nm is 1.83 OD450.
In the case of B10, the OD450 nm is 1.5 OD450.

Another assay has as its target T2, human GPC3-His protein. The assay is described as follows: ELISA, coated human GPC3, antibody 0.1 nM.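 Further: antigen coated on 96-well plates at 1 µg/mL, antibody bound 2 h at 37 °C, detected with HRP-labeled secondary antibody and TMB substrate, acid-stopped.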
For B1, the OD450 nm is 1.22 OD450.
Consider B2, for which the OD450 nm was 0.86 OD450.
On the same count and under the same terms, in the case of B3 it was 0.25 OD450; in that of B4, 0.42 OD450; in that of B5, 0.97 OD450.
B6 came in with an OD450 nm of 0.66 OD450.
The same measure, in the same setting: in the case of B7 it was 0.4 OD450; in that of B8, 1.61 OD450.
Same read-out and setting: the same measure for B9: 0.83 OD450; for B10: 0.8 OD450.

A further assay has as its target T2, human GPC3-His protein. The assay is described as follows: ELISA, coated human GPC3, antibody 10 nM.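 Further: plate coated with antigen at 1 µg/mL, antibodies bound 2 h at 37 °C, detected via HRP-conjugated secondary antibody and TMB substrate, absorbance read after acid stop.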
Procedure: The specific method is described as follows: The antigen protein was diluted with PBS to a final concentration of 1 μg/mL, and the diluent was added to a 96-well ELISA plate at 50 μL/well. The plate was sealed with a plastic film and incubated at 4° C. overnight, washed twice with PBS the next day, and a blocking solution [PBS+2% (w/w) BSA] was added for blocking at room temperature for 2 h. […] After incubation at 37° C. for 2 h, the plate was washed 3 times with PBS. A horseradish peroxidase (HRP)-labeled secondary antibody (purchased from Merck, Cat. No. AP113P) was added for incubation at 37° C. for 1 h, and the plate was washed 5 times with PBS. A TMB substrate was added at 50 μL/well for incubation at room temperature for 10 min, then a stop solution (1.0M HCl) was added at 50 μL/well. An ELISA plate reader (Multimode Plate Reader, EnSight, purchased from Perkin Elmer) was used to read OD_{450 nm} values, with results as shown in Table 4 to Table 6, FIG. 1A, FIG. 1B, and FIG. 1C.
Molecule B1 gave an OD450 nm of 2.31 OD450.
Still for that read-out and setting: the same measure for B2: 1.74 OD450; for B3: 1.19 OD450; for B4: 1.18 OD450.
The same measure, in the same setting: in the case of B5 it was 1.59 OD450; in that of B6, 1.07 OD450.
Molecule B7 registered an OD450 nm of 1.19 OD450.
Still for that read-out and setting: the same measure for B8: 2.46 OD450; for B9: 1.9 OD450; for B10: 2.02 OD450.

For a further assay, the target named is T2, human GPC3-His protein. The assay is described as follows: ELISA, coated human GPC3, antibody 0.0001 nM.
The molecule B1 registered an OD450 nm of 0.1 OD450.
B2: the OD450 nm was determined as 0.09 OD450.
For the molecule B3, the OD450 nm came out at 0.08 OD450.
Still for that read-out and setting: the same measure for B4: 0.08 OD450; for B5: 0.08 OD450.
On the same count and under the same terms, in the case of B6 it was 0.09 OD450; in that of B7, 0.08 OD450.
For B8, the OD450 nm stood at 0.1 OD450.
The same measure, in the same setting: in the case of B9 it was 0.09 OD450; in that of B10, 0.08 OD450.

The target in a further assay is T2, human GPC3-His protein. The assay is described as follows: ELISA, coated human GPC3, antibody 100 nM.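 Further: antibodies bound to antigen-coated 96-well plates (1 µg/mL), 2 h at 37 °C, detected with HRP-labelled secondary antibody and TMB substrate, absorbance read at 450 nm.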
The molecule B1 came in with an OD450 nm of 2.56 OD450.
In turn, B2 came in with an OD450 nm of 1.46 OD450.
The same measure, in the same setting: the same measure for B3: 0.66 OD450; for B4: 0.62 OD450.
The molecule B5 yielded an OD450 nm of 1.51 OD450.
Turning to B6, the OD450 nm is 0.45 OD450.
As for B7, the OD450 nm was determined as 0.76 OD450.
For B8, the OD450 nm came out at 2.7 OD450.
In the case of B9, the OD450 nm was 2.01 OD450.
B10: the OD450 nm was determined as 2.35 OD450.

The target of another assay is T2, human GPC3-His protein. The assay is described as follows: ELISA, coated human GPC3, antibody 0.001 nM.
B1: the OD450 nm is 0.13 OD450.
As for B2, the OD450 nm was 0.11 OD450.
As for B3, the OD450 nm was found to be 0.09 OD450.
On the same count and under the same terms, in the case of B4 it was 0.09 OD450.
On the same count and under the same terms, the same measure for B5: 0.11 OD450; for B6: 0.12 OD450; for B7: 0.1 OD450.
In turn, B8 showed an OD450 nm of 0.14 OD450.
B9: the OD450 nm is 0.11 OD450.
Still for that read-out and setting: in the case of B10 it was 0.11 OD450.

For another assay, the target named is T3, human GPC3 on CHO-K1-human GPC3 cells (clone CHOK1-hGPC3.2B5) (human, UniProt P51654 25-554).
T3 construct: whole, on cells; Stably transfected CHO-K1 clone 2B5
The assay is described as follows: FACS on CHOK1-hGPC3.2B5 cells.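 Further: flow cytometry binding of chimeric antibodies to the cells, read out as mean fluorescence intensity, with the half-maximal concentration derived by curve fitting.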
On to B1, for which the EC50 is 0.4 nM and the “Max MFI” value came out at 9420 MFI.
As for B2, a half-maximal effect (EC50) was put at 0.66 nM and the “Max MFI” value is 8850 MFI.
Take B3: the EC50 was found to be 2.04 nM and the “Max MFI” value came out at 9600 MFI.
On to B4, for which the EC50 is 0.9 nM and the “Max MFI” value was determined as 9370 MFI.
The like results for B5 were, in that order, 0.55 nM and 9930 MFI.
As to B6, the response was half-maximal at 0.76 nM (EC50) and the “Max MFI” value was 10400 MFI.
The like results for B7 were, in that order, 1.1 nM and 10100 MFI.
The like results for B8 were, in that order, 1.08 nM and 9230 MFI.
On to B9, for which the EC50 came to 0.33 nM and the “Max MFI” value stood at 9980 MFI.
For B10 the same measures were 1.36 nM and 9360 MFI.

For the origin of these results see patent publication US20260116991A1 (HAINAN SIMCERE ZAIMING PHARMACEUTICAL, published 2026).
